Drawing on the supplement of paper PMC12042874, this text covers amyloid nucleation score for 98 substances.

± gives the uncertainty stated by the source.

The nature of this data set: amyloid nucleation score (Sup35N fusion, yeast selection) (log enrichment); library NNK3; higher = more nucleation; inactive = no reads after selection. Summed up:
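For the nucleation score, DiMSum gave the log enrichment of output over input reads, centred on the mode score of non-aggregating sequences. Psi-negative yeast expressing Sup35N fused to peptides of 20 random codons were induced with 100 μM copper sulfate for 24 hours and grown 7 days at 30°C on medium lacking adenine and uracil. Input and output plasmid inserts were Illumina-sequenced, and sequences with under 100 input reads were excluded.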
SGLRASSSVMSCAYLTISWN: the amyloid nucleation score entry was “inactive”.

Turning to QGFFRFSLVSAKRACKLDYS, the amyloid nucleation score entry is “inactive”.

In turn, MYSNVDQFNI yielded an amyloid nucleation score of -0.257 ± 0.47.

For YLSINTAEYHFQEQVLVFVY, the amyloid nucleation score entry was “inactive”.

With WSRSACMGEGNLDVFSVWLL, the amyloid nucleation score result was “inactive”. The entry for FFFRLDCRLYS is “inactive”; for LDTLLVYHFRKERVLNTGVN it is “inactive”; for GPIINVIS it is “inactive”. As for WRVSFTLS, the entry is “inactive”; as for PRGMPIAIFSDWCRLRWGVF, “inactive”; as for LMSVLRFQTP, “inactive”. In the case of CIVAANHRRCNFLRLGRRLG, the amyloid nucleation score is -0.654 ± 1.5.

As for DNSFSPLASGLYQLKGVELI, the amyloid nucleation score result was “inactive”. As for VIDFYVEPCLIYGAPPCWLH, the figure is 0.606 ± 0.38; as for SNSSYWRICRLETCNPVGYK, “inactive”; as for MLIGWC, “inactive”. The entry for TAQTNPGVYYS is “inactive”; for QICRGCRYVNVYYVPLSLDL it is 1.32 ± 0.095. As to IPFRLFQNDSEKMSWSCDVT, the amyloid nucleation score result is “inactive”.

For SSRVVAWLSFNGSIICLFTF, the amyloid nucleation score result was “inactive”. As for PLQNKASVRVGCWAML, the entry is “inactive”. The entry for LLIFYGKLMIWGSGHSDTFR is “inactive”; for LQMYWIIV it is “inactive”; for VEHSFYSLVCHRTDLF it is “inactive”. Turning to VSRPS, the amyloid nucleation score entry is “inactive”.

In the case of PGLIVF, the amyloid nucleation score result was “inactive”. Turning to ILCANGYRSVFSYFLFGCAY, the amyloid nucleation score result was “inactive”. As for VMFCFKRHLL, the figure is 0.922 ± 0.15. The entry for MCGDKSV is “inactive”. As for ALMLDIFGRCTLRFRISGHG, the entry is “inactive”; as for SVLSLLLCYRCSRL, -0.081 ± 0.98; as for DLDIRIFMVHDPAYCSLCSF, “inactive”. For NFYYSSAFLSVLFPFSACFP, the amyloid nucleation score is 2.22 ± 0.084. The entry for AVMWYIPRDG is “inactive”.

With VISGVIVMWYAWMWAGYRVR, the amyloid nucleation score entry is “inactive”.

Regarding IDLVLFSTCVNALVVESFGG, the amyloid nucleation score result is “inactive”. The entry for KEADSVNDRLVNLLMHGTLC is “inactive”; for SAACPWNWLDGASPPLRATA it is “inactive”; for GYNIMLYMLKYS it is “inactive”.

Turning to VKWKDVDLFGLC, the amyloid nucleation score result is “inactive”. The entry for FWYFYSKEFTRQDLVDLNVM is “inactive”. Turning to FNALSWSVDFLWYARTTCVD, the amyloid nucleation score result was “inactive”. As for RVRDCSHRLLDIFVYLCGNT, the entry is “inactive”; as for FRVTY, “inactive”; as for RCYVNYIRTYICAYCFAVNE, 2.39 ± 0.074. In the case of ERLIPLPHISVIS, the amyloid nucleation score result was “inactive”. VGYVFFGFPVLKYARQESLS: the amyloid nucleation score result was “inactive”.

In the case of VRNLVHHPYAFL, the amyloid nucleation score entry is “inactive”. With RSTWMAIWKERYMQTGFL, the amyloid nucleation score entry was “inactive”.

On to LIIGHVFGFHGYVDWDDGTC, for which the amyloid nucleation score entry was “inactive”. PSSLVIINNYSYC came in with an amyloid nucleation score of 3.09 ± 0.073. In turn, KYEMTIPSSVLRALSNKHWL displayed an amyloid nucleation score of -0.539 ± 1.4. As for IFCYPQAQS, the entry is “inactive”; as for MSKWYYRWASYNCWFFDRPV, “inactive”; as for YFVSVGRNKELRGLFTRLVV, “inactive”.

The substance CVTYSYCYCQANHFHCRCQQ displayed an amyloid nucleation score of 2.88 ± 0.062. The figure for NSLFCTWSSPWVYNPTYGWE is 1.26 ± 0.17. The entry for RSRVSQFICRPGEVVNIAKC is “inactive”; for THTTAS it is “inactive”. In the case of WIPTPVLCGRPNFYFY, the amyloid nucleation score entry was “inactive”. As for FQARTPACPYVCSS, the amyloid nucleation score result is “inactive”. Take DGMSMCRQLLKGVQKPDYLL: the amyloid nucleation score entry is “inactive”. The figure for HLYHENSVFQLCVCTFVYSS is 2.91 ± 0.069; for SCDLELSNLELRVWRDTVRK it is 1.8 ± 0.069; for ITVELTCGSGYYGTMTENQV it is “inactive”. On to VRWWWLNF, for which the amyloid nucleation score result was “inactive”.

With GRFKSGSLPFRRSGE, the amyloid nucleation score entry was “inactive”.

Turning to EERIT, the amyloid nucleation score result was “inactive”. The entry for SVSSYAICVEACNYFRSRLV is “inactive”; for WRVAYET it is “inactive”.

Turning to FNSKRW, the amyloid nucleation score entry was “inactive”. As for YLCFLSKMVSYSISYQWSRQ, the entry is “inactive”. As for DSNWRNMRGLHFY, the entry is “inactive”; as for VMSCYAYYFTTRQDFPFLWD, “inactive”; as for SVSPCSTHFLMSFERYVRGT, “inactive”.

Regarding NSRARSSYRIMNWWLLFDMT, the amyloid nucleation score entry was “inactive”. The entry for YAHLAL is “inactive”; for RRTMSSLFFKFDLH it is “inactive”. The entry for RLNVYTYAKFRRHRCKATSW is “inactive”; for NWVVFFTYMAHHE it is 0.166 ± 0.26.

Regarding TFFFTVLG, the amyloid nucleation score is 1.55 ± 0.12. As for QSLLSSLLGSYSRLEKLNVD, the entry is “inactive”; as for LFSNTRVSSGYRSRLLSRCL, “inactive”. As for HLAMWFNHLSLDCL, the entry is “inactive”. The entry for VVKFFVWLDVFYVWGLAGII is “inactive”; for SADQSCYSPHFGGQRDRRWL it is “inactive”; for YSIDMHVNVHGTYYLMSKWV it is 1.73 ± 0.12.

For the substance WLKWFLRTCNMVKIFASPFF, the amyloid nucleation score entry was “inactive”. In the case of LVLAVVMTFRLRIRLSNLSR, the amyloid nucleation score entry was “inactive”. As for GKDKLEGKEGGVSCDGNLRP, the amyloid nucleation score result is “inactive”. With VYDWRGRVGD, the amyloid nucleation score entry was “inactive”.

YVWASIFFFTSYDEVVGRHV showed an amyloid nucleation score of 1.46 ± 0.13. QYAAMATGNLYLS: the amyloid nucleation score entry was “inactive”.

Turning to SFNRISIFYVNWCTAMNFVY, the amyloid nucleation score worked out at 1.13 ± 0.093. On to ITNIFFFHSTLLRSCRASGN, for which the amyloid nucleation score was determined as 2.47 ± 0.063.

With CLCWKAVLDRELFKSGFTAA, the amyloid nucleation score result is “inactive”. Consider SCVRVTSLGVNNTRFFDRSW, for which the amyloid nucleation score entry is “inactive”. As for SMGTFNMVRLSGTWGMSAMY, the figure is 0.757 ± 0.15.
